Laboratory results from paper PMC7893823.

Key:
[1] = biological target: nucleosome core particle (NCP) with human histones H2A, H2B, H3.1 and H4 and the 145-base pair Widom 601 DNA, P04908;P06899;P68431;P62805; test: gel shift assay; settings: NCP 0.52 µM, dsDNA 50-mer competitor DNA included, read off a plot
[2] = biological target: human SET8 (KMT5A Isoform 2), Q9NQR1-2; test: gel shift assay; settings: NCPapd 0.52 µM, dsDNA 50-mer competitor DNA included, read off a plot
Chain of human SET8 (KMT5A Isoform 2), Q9NQR1-2 (Q9NQR1 whole entry, looked up, canonical isoform): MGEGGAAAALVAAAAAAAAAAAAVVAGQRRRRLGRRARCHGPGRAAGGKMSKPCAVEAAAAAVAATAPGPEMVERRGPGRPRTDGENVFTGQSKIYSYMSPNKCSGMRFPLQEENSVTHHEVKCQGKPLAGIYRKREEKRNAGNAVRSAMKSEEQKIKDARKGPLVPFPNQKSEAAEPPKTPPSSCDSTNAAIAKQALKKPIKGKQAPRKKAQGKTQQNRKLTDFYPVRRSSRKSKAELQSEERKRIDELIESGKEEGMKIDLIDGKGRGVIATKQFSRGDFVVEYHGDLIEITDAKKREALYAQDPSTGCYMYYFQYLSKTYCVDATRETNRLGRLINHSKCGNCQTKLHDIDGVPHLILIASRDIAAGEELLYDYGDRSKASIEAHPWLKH

Row | Substance | response ([1]; SET8 R188A/R192A 1.0 µM, parent: est. 61) | response ([1]; SET8 R188A/R192A 2.1 µM, parent: est. 91) | response ([2]; SET8 1.0 µM, parent: est. 61) | response ([2]; SET8 2.1 µM, parent: est. 91)
1 | human SET8 (KMT5A Isoform 2) (from UniProt Q9NQR1-2) R188A; R192A | 23% | 54% |  | 
2 | nucleosome core particle (NCP) with human histones H2A, H2B, H3.1 and H4 and the 145-base pair Widom 601 DNA (from UniProt P04908;P06899;P68431;P62805) H2A:E56T; H2A:E61T; H2A:E64T; H2A:D90S; H2A:E91T; H2A:E92T; H2B:E105T; H2B:E113T |  |  | 4.5% | 13%
